T1: SNTG2, Q9NY99
T1 sequence (Q9NY99 68-166, limits assumed, looked up): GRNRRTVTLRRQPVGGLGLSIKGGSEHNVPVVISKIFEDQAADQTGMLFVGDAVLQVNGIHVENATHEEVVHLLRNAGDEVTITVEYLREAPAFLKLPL

T2: APBA1_2, Q02410
T2 sequence (Q02410 742-832, limits assumed, looked up): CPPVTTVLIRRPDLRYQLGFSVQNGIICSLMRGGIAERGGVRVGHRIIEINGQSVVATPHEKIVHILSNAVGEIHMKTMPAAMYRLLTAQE

T3: GRIP1_4, Q9Y3R0
T3 sequence (Q9Y3R0 467-571, limits assumed, looked up): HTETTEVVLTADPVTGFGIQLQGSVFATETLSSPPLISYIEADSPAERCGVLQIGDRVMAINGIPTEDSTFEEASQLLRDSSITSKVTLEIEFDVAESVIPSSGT

T4: MPP2, Q14168
T4 sequence (Q14168 180-250, limits assumed, looked up): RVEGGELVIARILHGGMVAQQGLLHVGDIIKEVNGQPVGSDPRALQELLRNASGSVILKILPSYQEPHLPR

T5: DLG3_3, Q92796
T5 sequence (Q92796 374-475, limits assumed, looked up): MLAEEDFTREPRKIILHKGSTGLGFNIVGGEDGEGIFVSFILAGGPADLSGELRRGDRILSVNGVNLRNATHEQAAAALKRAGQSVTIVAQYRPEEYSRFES

T6: LIN7B, Q9HAP6
T6 sequence (Q9HAP6 88-185, limits assumed, looked up): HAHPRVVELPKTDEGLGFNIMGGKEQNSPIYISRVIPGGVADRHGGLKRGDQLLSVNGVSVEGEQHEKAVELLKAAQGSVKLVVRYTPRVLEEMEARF

T7: NHERF3_4, Q5T2W1
T7 sequence (Q5T2W1 373-468, limits assumed, looked up): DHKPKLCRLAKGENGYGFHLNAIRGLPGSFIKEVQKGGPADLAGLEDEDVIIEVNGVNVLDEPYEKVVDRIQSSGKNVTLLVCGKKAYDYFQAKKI

T8: GRIP1_7, Q9Y3R0
T8 sequence (Q9Y3R0 999-1096, limits assumed, looked up): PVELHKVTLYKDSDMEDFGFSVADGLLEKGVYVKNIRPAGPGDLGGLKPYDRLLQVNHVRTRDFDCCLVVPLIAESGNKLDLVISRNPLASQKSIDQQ

T9: PTPN13_1, Q12923
T9 sequence (Q12923 1088-1188, limits assumed, looked up): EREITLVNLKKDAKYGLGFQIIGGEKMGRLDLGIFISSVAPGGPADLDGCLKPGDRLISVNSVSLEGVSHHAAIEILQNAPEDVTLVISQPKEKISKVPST

T10: PDZD2_2, O15018
T10 sequence (O15018 329-429, limits assumed, looked up): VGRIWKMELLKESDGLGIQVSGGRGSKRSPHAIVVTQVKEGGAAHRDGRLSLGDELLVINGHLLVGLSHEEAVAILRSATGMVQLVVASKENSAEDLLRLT

T11: MPDZ_12, O75970
T11 sequence (O75970 1857-1958, limits assumed, looked up): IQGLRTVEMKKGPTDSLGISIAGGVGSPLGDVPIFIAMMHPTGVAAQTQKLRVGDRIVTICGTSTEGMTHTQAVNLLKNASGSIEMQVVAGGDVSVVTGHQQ


Legend:
Assay in all cases: holdup assay
Set-up in all cases: key: below the threshold = too weak to quantify, mostly under pKd 3.1 to 4
Conditions in all cases: plain residues with an end cap or a label only (N-terminal biotin on a linker: ahx)
SNTG2, Q9NY99 = target: T1, SNTG2, Q9NY99
DLG1_2, Q12959 = target: DLG1_2, Q12959
Chain of DLG1_2, Q12959 (Q12959 314-412): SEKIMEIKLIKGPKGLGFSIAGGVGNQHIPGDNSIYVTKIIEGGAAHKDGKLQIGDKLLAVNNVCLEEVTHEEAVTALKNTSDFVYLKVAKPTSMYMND

APBA1_2, Q02410 = target: T2, APBA1_2, Q02410
SCRIB_3, Q14160 = target: SCRIB_3, Q14160
Chain of SCRIB_3, Q14160 (Q14160 999-1103): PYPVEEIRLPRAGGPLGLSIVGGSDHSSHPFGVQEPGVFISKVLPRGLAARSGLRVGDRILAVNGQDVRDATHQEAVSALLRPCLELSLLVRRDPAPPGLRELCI

GRIP2_7, Q9C0E4 = target: GRIP2_7, Q9C0E4
Chain of GRIP2_7, Q9C0E4 (Q9C0E4 934-1023): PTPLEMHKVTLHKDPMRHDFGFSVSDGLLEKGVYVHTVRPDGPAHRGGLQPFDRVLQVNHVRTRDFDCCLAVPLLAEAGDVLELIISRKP

LIMK2, P53671 = target: LIMK2, P53671
Chain of LIMK2, P53671 (P53671 143-248): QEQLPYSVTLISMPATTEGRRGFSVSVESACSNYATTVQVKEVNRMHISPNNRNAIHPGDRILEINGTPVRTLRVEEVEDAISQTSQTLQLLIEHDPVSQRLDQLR

GRIP1_4, Q9Y3R0 = target: T3, GRIP1_4, Q9Y3R0
FRMPD2_2, Q68DX3 = target: FRMPD2_2, Q68DX3
Chain of FRMPD2_2, Q68DX3 (Q68DX3 944-1038): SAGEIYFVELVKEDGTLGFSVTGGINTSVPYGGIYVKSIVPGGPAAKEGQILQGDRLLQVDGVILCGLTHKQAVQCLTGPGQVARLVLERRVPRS

NOS1, P29475 = target: NOS1, P29475
Chain of NOS1, P29475 (P29475 9-101): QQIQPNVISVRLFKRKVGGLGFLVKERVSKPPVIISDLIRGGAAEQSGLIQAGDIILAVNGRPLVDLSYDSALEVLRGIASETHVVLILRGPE

NHERF4_2, Q86UT5 = target: NHERF4_2, Q86UT5
Chain of NHERF4_2, Q86UT5 (Q86UT5 220-308): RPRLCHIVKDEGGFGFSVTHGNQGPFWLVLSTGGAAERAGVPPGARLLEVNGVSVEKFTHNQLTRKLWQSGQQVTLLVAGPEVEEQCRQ

MPP2, Q14168 = target: T4, MPP2, Q14168
DLG3_3, Q92796 = target: T5, DLG3_3, Q92796
LIN7B, Q9HAP6 = target: T6, LIN7B, Q9HAP6
GRID2IP_2, A4D2P6 = target: GRID2IP_2, A4D2P6
Chain of GRID2IP_2, A4D2P6 (A4D2P6 272-370): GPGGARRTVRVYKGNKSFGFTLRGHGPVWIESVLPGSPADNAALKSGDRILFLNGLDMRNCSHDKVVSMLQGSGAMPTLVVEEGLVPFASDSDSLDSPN

FRMPD2_1, Q68DX3 = target: FRMPD2_1, Q68DX3
Chain of FRMPD2_1, Q68DX3 (Q68DX3 770-861): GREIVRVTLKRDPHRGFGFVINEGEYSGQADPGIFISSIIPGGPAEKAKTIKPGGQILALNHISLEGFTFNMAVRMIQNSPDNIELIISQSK

DLG4_2, P78352 = target: DLG4_2, P78352
Chain of DLG4_2, P78352 (P78352 155-259): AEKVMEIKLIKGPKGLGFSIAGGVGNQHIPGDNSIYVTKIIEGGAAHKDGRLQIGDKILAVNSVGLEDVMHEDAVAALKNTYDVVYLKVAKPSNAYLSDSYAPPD

NHERF3_4, Q5T2W1 = target: T7, NHERF3_4, Q5T2W1
AHNAK1, Q09666 = target: AHNAK1, Q09666
PARD3_3, Q8TEW0 = target: PARD3_3, Q8TEW0
Chain of PARD3_3, Q8TEW0 (Q8TEW0 582-685): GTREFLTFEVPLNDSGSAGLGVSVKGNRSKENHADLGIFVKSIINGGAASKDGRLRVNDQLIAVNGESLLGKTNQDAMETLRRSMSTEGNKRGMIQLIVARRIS

MAGI2_6, Q86UL8 = target: MAGI2_6, Q86UL8
Chain of MAGI2_6, Q86UL8 (Q86UL8 1141-1229): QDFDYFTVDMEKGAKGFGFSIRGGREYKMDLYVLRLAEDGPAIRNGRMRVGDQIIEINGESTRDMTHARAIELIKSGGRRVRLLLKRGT

GRIP1_7, Q9Y3R0 = target: T8, GRIP1_7, Q9Y3R0
PTPN13_1, Q12923 = target: T9, PTPN13_1, Q12923
PDZD2_2, O15018 = target: T10, PDZD2_2, O15018
MPDZ_12, O75970 = target: T11, MPDZ_12, O75970
LNX1_3, Q8TBB1 = target: LNX1_3, Q8TBB1
Chain of LNX1_3, Q8TBB1 (Q8TBB1 500-596): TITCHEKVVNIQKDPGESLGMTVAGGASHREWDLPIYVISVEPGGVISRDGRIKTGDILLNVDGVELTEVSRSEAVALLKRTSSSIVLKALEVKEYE

MAGI2_4, Q86UL8 = target: MAGI2_4, Q86UL8
Chain of MAGI2_4, Q86UL8 (Q86UL8 772-865): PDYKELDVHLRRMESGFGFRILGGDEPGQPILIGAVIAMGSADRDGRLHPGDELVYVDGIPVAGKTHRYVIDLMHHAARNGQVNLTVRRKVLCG

FRMPD4, Q14CM0 = target: FRMPD4, Q14CM0
Chain of FRMPD4, Q14CM0 (Q14CM0 67-160): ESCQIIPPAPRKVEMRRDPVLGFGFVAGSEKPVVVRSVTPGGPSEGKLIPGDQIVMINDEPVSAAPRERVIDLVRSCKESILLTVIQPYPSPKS

| Binder | pKd (SNTG2, Q9NY99) | pKd (DLG1_2, Q12959) | pKd (APBA1_2, Q02410) | pKd (SCRIB_3, Q14160) | pKd (GRIP2_7, Q9C0E4) | pKd (LIMK2, P53671) | pKd (GRIP1_4, Q9Y3R0) | pKd (FRMPD2_2, Q68DX3) | pKd (NOS1, P29475) | pKd (NHERF4_2, Q86UT5) | pKd (MPP2, Q14168) | pKd (DLG3_3, Q92796) | pKd (LIN7B, Q9HAP6) | pKd (GRID2IP_2, A4D2P6) | pKd (FRMPD2_1, Q68DX3) | pKd (DLG4_2, P78352) | pKd (NHERF3_4, Q5T2W1) | pKd (AHNAK1, Q09666) | pKd (PARD3_3, Q8TEW0) | pKd (MAGI2_6, Q86UL8) | other results |
| --- | --- | --- | --- | --- | --- | --- | --- | --- | --- | --- | --- | --- | --- | --- | --- | --- | --- | --- | --- | --- | --- |
| TVICWPGSLV [LNX2, Q8N448] | 3.73 | 4.27 | 4.39 | 4.11 | below the threshold | below the threshold | below the threshold | 3.85 | 3.82 | below the threshold | 3.62 | 3.95 | 4.46 | 3.95 | 4.13 | 4.36 | below the threshold | below the threshold | 3.68 | 3.56 | pKd (GRIP1_7, Q9Y3R0): below the threshold; pKd (PTPN13_1, Q12923): below the threshold; pKd (PDZD2_2, O15018): 5.07; pKd (MPDZ_12, O75970): 3.84; pKd (LNX1_3, Q8TBB1): 3.57; pKd (MAGI2_4, Q86UL8): 5.22; pKd (FRMPD4, Q14CM0): below the threshold |
| PSASCAVTAA [PDLIM4, P50479;P50479-2] | below the threshold | below the threshold | below the threshold | below the threshold | below the threshold | below the threshold | below the threshold | below the threshold | below the threshold | below the threshold | below the threshold | below the threshold | below the threshold | below the threshold | below the threshold | below the threshold | below the threshold | below the threshold | below the threshold | below the threshold | pKd (GRIP1_7, Q9Y3R0): below the threshold; pKd (PTPN13_1, Q12923): below the threshold; pKd (PDZD2_2, O15018): below the threshold; pKd (MPDZ_12, O75970): below the threshold; pKd (LNX1_3, Q8TBB1): below the threshold; pKd (MAGI2_4, Q86UL8): below the threshold; pKd (FRMPD4, Q14CM0): below the threshold |
